Measurements reported in the supplement of paper PMC10724198.
± gives the standard deviation of the averaged measurements.

tested on: Saccharomyces cerevisiae; experiment: protein stability index of tFT-peptide fusion (C-terminal peptide) (PSI (0-1 scale)); higher = more stable (slower turnover); conditions: genetic background: wild type; temperature: 30 C
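Note: PSI is a weighted mean of sequencing reads over stability bins, variants kept only with over 10 reads, mCherry proximal and sfGFP distal, peptide attached via GGGS linker.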

PSWLPLPLLFLV and PSYTSYFVGLST are within error of each other in protein stability index: 0.416 ± 0.18 for the first, 0.48 ± 0.11 for the second.

PTDVVCVSGHGS and PTFPPPPRTPPS are within error of each other in protein stability index: 0.748 ± 0.076 for the first, 0.719 ± 0.017 for the second.

PTFRSRPFPPHP and PTGCPPGVTPCL are within error of each other in protein stability index: 0.703 ± 0.032 for the first, 0.681 ± 0.022 for the second.

First: PTLGDPSVLLLL
Second: PTLSPSPLAPLS
The protein stability index of the first is higher: 0.69 ± 0.022 for the first, 0.6635 ± 0.0018 for the second.

PTNQHNLEQRPE and PTPLSPRNTILR are within error of each other in protein stability index: 0.667 ± 0.05 for the first, 0.726 ± 0.1 for the second.

PTPPLPLPRPLP and PTPPNSPRPPTP are within error of each other in protein stability index: 0.688 ± 0.037 for the first, 0.63 ± 0.12 for the second.

PTPPPLLTRPLP and PTSLPAPPRLPF are within error of each other in protein stability index: 0.709 ± 0.11 for the first, 0.713 ± 0.023 for the second.

First: PTSPPPPLPPPS
Second: PTVLCTGKCLRS
The protein stability index of the first is higher: 0.7066 ± 0.0036 for the first, 0.635 ± 0.044 for the second.

First: PVAGSAGVRNLP
Second: PVAGTLDVHYRV
The protein stability index of the first is lower: 0.671 ± 0.012 for the first, 0.7098 ± 0.0063 for the second.

PVAPKPTGAKTP and PVCDPCSKATLL are within error of each other in protein stability index: 0.661 ± 0.06 for the first, 0.687 ± 0.015 for the second.

PVDAAPCSPSGL and PVDPPEDLNTRS are within error of each other in protein stability index: 0.663 ± 0.041 for the first, 0.7098 ± 0.0064 for the second.

PVFSHTDSRYRP and PVGFPLPCPFFT are within error of each other in protein stability index: 0.681 ± 0.09 for the first, 0.688 ± 0.035 for the second.

First: PVKTHPPPPPLP
Second: PVLELTLILRRS
The protein stability index of the first is higher: 0.724 ± 0.024 for the first, 0.6304 ± 0.0023 for the second.

PVLLLLSLPRPL and PVLLVWDLPAVL are within error of each other in protein stability index: 0.667 ± 0.014 for the first, 0.714 ± 0.086 for the second.

PVPADGPSPPQP and PVPDDVTVLLSR are within error of each other in protein stability index: 0.721 ± 0.035 for the first, 0.804 ± 0.12 for the second.

PVPLEAPSPPPP and PVPLPSSSPSPY are within error of each other in protein stability index: 0.671 ± 0.022 for the first, 0.663 ± 0.046 for the second.

Going from PVPLTPRCPSVT to PVPLVLSFLCDL, the protein stability index rises from 0.6 ± 0.019 to 0.686 ± 0.03.

PVPPAPASPPTG and PVPPLPPRPPPL are within error of each other in protein stability index: 0.742 ± 0.06 for the first, 0.619 ± 0.11 for the second.

PVPPLRRFPPLF and PVPPSARHSSPP are within error of each other in protein stability index: 0.648 ± 0.036 for the first, 0.66 ± 0.021 for the second.

First: PVPVFLLLFFSP
Second: PVSPLPGPPPPP
The protein stability index of the first is lower: 0.496 ± 0.052 for the first, 0.7681 ± 0.0053 for the second.

PVSPPLSLASPS and PVSRSVHIEDKR are within error of each other in protein stability index: 0.706 ± 0.047 for the first, 0.727 ± 0.052 for the second.

PVVLGVGMEGIS and PVWVDRGVLWSV are within error of each other in protein stability index: 0.7137 ± 0.0068 for the first, 0.716 ± 0.094 for the second.

PWFGSSPRLAAC and PWGGMNWGGLSV are within error of each other in protein stability index: 0.7346 ± 0.0073 for the first, 0.745 ± 0.073 for the second.

Compared with PWKDPSLLLHRS, PWPFKQHEHRRA is higher in protein stability index: 0.743 ± 0.061 for the first, 0.847 ± 0.015 for the second.

PYIKDRYSPANN and PYLLPPFLPSPP are within error of each other in protein stability index: 0.781 ± 0.062 for the first, 0.732 ± 0.029 for the second.

PYSPPYSLTSLS and PYVAFMLPSPWQ are within error of each other in protein stability index: 0.708 ± 0.075 for the first, 0.672 ± 0.033 for the second.

QAHRHASPKTRT and QAVQTLTAETKH are within error of each other in protein stability index: 0.654 ± 0.032 for the first, 0.63 ± 0.051 for the second.

Going from QAVVGRVRLRGE to QCFRYSVFVGRG, the protein stability index falls from 0.6775 ± 0.0017 to 0.63 ± 0.019.

First: QCIRLFCPLVSL
Second: QDTRRRAPYPPS
The protein stability index of the first is lower: 0.587 ± 0.014 for the first, 0.673 ± 0.051 for the second.

QEPDARYGPGRT and QESGPEAGIPPL are within error of each other in protein stability index: 0.692 ± 0.12 for the first, 0.7222 ± 0.003 for the second.

QFTSGCPAYLLK and QGEARRPPSPGR are within error of each other in protein stability index: 0.678 ± 0.0079 for the first, 0.638 ± 0.19 for the second.

Going from QGGCAATRARGS to QGLSHVVTCLFG, the protein stability index rises from 0.631 ± 0.0033 to 0.721 ± 0.07.

QGRLRLSLLVSG and QGRYPLNVLIRI are within error of each other in protein stability index: 0.526 ± 0.0048 for the first, 0.57 ± 0.057 for the second.

QGTHRGSGGVTE and QGVPNEPLWARP are within error of each other in protein stability index: 0.716 ± 0.023 for the first, 0.72 ± 0.027 for the second.

QHTHNRLRAAQD and QIKPSLGLDKPS are within error of each other in protein stability index: 0.678 ± 0.029 for the first, 0.683 ± 0.061 for the second.

QIQKINTKSKKN and QIRRPRRFFYVS are within error of each other in protein stability index: 0.699 ± 0.021 for the first, 0.642 ± 0.17 for the second.

Going from QIVDHCLVWLRG to QKISEKNISEKN, the protein stability index rises from 0.628 ± 0.0066 to 0.7063 ± 0.0013.

First: QKKKIRKKKKTT
Second: QKKKKKIKEHSK
The protein stability index of the first is higher: 0.685 ± 0.0074 for the first, 0.626 ± 0.031 for the second.

QKKRKKPGKWKS and QKQQRIKQTAKK are within error of each other in protein stability index: 0.662 ± 0.022 for the first, 0.703 ± 0.048 for the second.

QKRIALNSQKNT and QKRKKQNKDGGT are within error of each other in protein stability index: 0.688 ± 0.048 for the first, 0.716 ± 0.042 for the second.

QKSGELVKNVRI and QKVNKDTRTSEF are within error of each other in protein stability index: 0.673 ± 0.035 for the first, 0.709 ± 0.014 for the second.

QLNGTVTRPGDF and QLRPLSPLPPQP are within error of each other in protein stability index: 0.7 ± 0.036 for the first, 0.738 ± 0.029 for the second.

Compared with QLSLSTPAGRLI, QLSRHCYQPSGG is lower in protein stability index: 0.6886 ± 0.0068 for the first, 0.671 ± 0.0073 for the second.

QMKRPSCKGTCD and QNEVWDACVGRC are within error of each other in protein stability index: 0.679 ± 0.044 for the first, 0.702 ± 0.017 for the second.

QNGNRPCCEKAW and QNIRTELTSPRV are within error of each other in protein stability index: 0.681 ± 0.021 for the first, 0.6596 ± 0.0016 for the second.

QNKNPNRTEKSK and QNRKELVERPKR are within error of each other in protein stability index: 0.701 ± 0.056 for the first, 0.702 ± 0.017 for the second.

QNTTESANWSIT and QPALGNTNKYKN are within error of each other in protein stability index: 0.696 ± 0.052 for the first, 0.676 ± 0.049 for the second.

QPLPLPSPPPPA and QPPSPSLFFPRV are within error of each other in protein stability index: 0.741 ± 0.058 for the first, 0.704 ± 0.016 for the second.

QPSDTSHPHQPS and QPYRQAKNQRLP are within error of each other in protein stability index: 0.692 ± 0.028 for the first, 0.728 ± 0.02 for the second.

QQRHITHRKIRI and QRARDSLVQTRH are within error of each other in protein stability index: 0.6595 ± 0.0048 for the first, 0.681 ± 0.032 for the second.

QRGGTWGALWEG was tested, and the protein stability index was 0.671 ± 0.02.
